Changes are numbered by the printed parent chain. Names may count otherwise.
T1: pL807
T1 chain: KEAPPSPPQSP

T2: L807
T2 chain: KEAPPSPPQSP

B1: Bacterially expressed Purified GSK-3β Wild-Type (WT) (protein)
chain: MSGRPRTTSFAESCKPVQQPSAFGSMKVSRDKDGSKVTTVVATPGQGPDRPQEVSYTDTKVIGNGSFGVVYQAKLCDSGELVAIKKVLQDKRFKNRELQIMRKLDHCNIVRLRYFFYSSGEKKDEVYLNLVLDYVPETVYRVARHYSRAKQTLPVIYVKLYMYQLFRSLAYIHSFGICHRDIKPQNLLLDPDTAVLKLCDFGSAKQLVRGEPNVSYICSRYYRAPELIFGATDYTSSIDVWSAGCVLAELLLGQPIFPGDSGVDQLVEIIKVLGTPTREQIREMNPNYTEFKFPQIKAHPWTKDSSGTGHFTSGVRVFRPRTPPEAIALCSRLLEYTPTARLTPLEACAHSFFDELRDPNVKLPNGRDTPALFNFTTQELSSNPPLATILIPPHARIQAAASTPTNATAASDANTGDRGQTNNAASASASNST
B2: GSK-3β F93A mutant (in which Phe93 was replaced by alanine) (protein)
chain: B1 chain with F93A

Key:
[1] = target: T1, pL807
[2] = target: T2, L807

| Protein | peptide phosphorylation by GSK-3β (in vitro kinase assay, 32P-γ-ATP) [1] | peptide phosphorylation by GSK-3β (in vitro kinase assay, 32P-γ-ATP) [2] | peptide phosphorylation by WT GSK-3β (in vitro kinase assay) [2] | peptide phosphorylation by the F93A mutant (in vitro kinase assay) [2] |
| --- | --- | --- | --- | --- |
| B1 | pL807 is not a substrate of GSK-3 | shows that L807 is a substrate of GSK-3 | L807 is phosphorylated by both GSK-3 and F93A |  |
| B2 |  |  |  | L807 is phosphorylated by both GSK-3 and F93A |
